The results in this text go back to patent US20190153103A1.

B1: SC91.111 (antibody, V domains shown)
VH: QIQLVQSGPELKKPGETVKISCKASGYTLTTYGMNWVKQAPGKGLKWMGWINTYSGVPAYADDFKGRFAFSLETSASTAYLQINNFKNEDTATYFCARSELRNWYFDVWGTGTTVTVSS
VL: SFVMTQTPKFLLVSAGDRVTITCKASQNMGHNVAWYQQKPGQSPKLLIYYASNRYTGVPDRFTGSGYGTDFTFTISTVQAEDLAVYFCQQDYSSPFTFGSGTKLEIK
B2: SC91.155 (antibody, V domains shown)
VH: QIQLVQSGPELKKPGETVKISCKASGYTFTTYGMNWVKQAPGKGLKWMGWINSYSGVPAYADDFKGRFAFSLETFASTAYLQINNLRDEDTATYFCARSELRNWYFDVWGTGTTVTVSS
VL: SFVMTQTPKFLLVSAGDRVTITCKASQNLGNDVAWYQQKPGQSPRLLIYFASNRYTGVPDRFTGSGYGTDFTFTISTVQAEDLAVYFCQQDYSSPFTFGSGTKLEIK
B3: SC91.160 (antibody, V domains shown)
VH: QIQLVQSGPELKKPGETVKISCKASGYTFTTYGMNWVKQAPGKGLKWMGWINTYSGVPSSADDFKGRFAFSLETSASTAYLLINNLKNEDTATYFCARSELRNWYFDVWGTGTTVTVSS
VL: SFVMTQTPKFLLVSAGDRVTITCKASQNMGHDVAWYQQKPGQSPKLLIYSASNRYTGVPDRFTGSGYGTDFTFTISTVQAEDLAVYFCQQDYSSPFTFGSGTKLEMK
B4: SC91.149 (antibody, V domains shown)
VH: QVQLLQPGAELVKPGSSVKVSCKASGYTFTNYWMQWVKQRPGQGLEWIGEIDPSDTYTLYNQKFKGKATLTVDTSSSTAYMQLSSLTSEDSAVYYCARFGYYVDYWGQGTTLTVSS
VL: DVVMTQTPLSLPVSLGDQASISCRSSQSLVHSTGNTYFHWYLQKPGQSPELLIYKVSNRFSGVPDRFRGSGSGTDFTLKISRVEAEDLGVYFCSQSTHVPFTFGSGTKLEIK
B5: SC91.172 (antibody, V domains shown)
VH: QVQLQQPGADLVKPGTSVKLSCKASGYTFTSYWMQWVKQRPGQGLEWIGEIDPSDTYTMYNQKFKGKATLTVDTSSSTAYMQLSSLTSEDSAVYYCARFGYYVDYWGQGTTLTVSS
VL: DVVMTQTPLSLPVSLGDQASISCRSSQSLVHSTGNTYLHWYLQKAGQSPKLLIYKVSNRFSGVPDRFSGSGSGTDFTLKISRVEAEDLGVYFCSQSTHVPFTFGSGTKLEIK
B6: SC91.187 (antibody, V domains shown)
VH: QVQLQQPGPEFVKPGASVKLSCKASGYTFTSYWVQWVKQRPGQGLEWIGEIDPSDNYTLYNQNFKGKATLTVDTSSSTAYMQLSSLTSEDSAVYYCARFGFYVDYWGQGTTLTVSS
VL: DVVMTQTPLSLPVSLGEQASISCRSSQSLVHSTGNTYLHWYLQKPGQSPKLLIYKVSNRFSGVPDRFSGSGSGTDFTLKISRVEAEDLGVYFCSQSTHVPFTFGSGTKLEIK

In this test the target is recombinant human BMPR-1A/ALK-3-Fc Chimera (R&D systems Catalog: 315-BR) (human) (UniProt P36894). The test can be described thus: ELISA.
Sequence of recombinant human BMPR-1A/ALK-3-Fc Chimera (R&D systems Catalog: 315-BR) (human) (P36894 24-152 limits assumed, change not shown): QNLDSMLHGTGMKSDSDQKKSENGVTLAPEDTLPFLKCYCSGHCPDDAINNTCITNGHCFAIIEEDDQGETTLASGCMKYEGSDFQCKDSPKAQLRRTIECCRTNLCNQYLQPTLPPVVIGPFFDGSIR
B1: the ELISA was 0.077.
In the case of B2 it was 0.059; in that of B3, 0.061.
Consider B4, for which the ELISA stood at 0.066.
On to B5, for which the ELISA was 0.062.
Consider B6, for which the ELISA was determined as 0.092.
